How the values were obtained:
Assay in all cases: Western blot, whole cell extracts of 293F cells
[1] = molecular target: T1, human IL-3Rα E51A, full length (human, UniProt P26951 19-378)
T1 construct: expressed in 293F cells; Western blot of whole cell extracts; also called E51, cell surface alanine
T1 sequence: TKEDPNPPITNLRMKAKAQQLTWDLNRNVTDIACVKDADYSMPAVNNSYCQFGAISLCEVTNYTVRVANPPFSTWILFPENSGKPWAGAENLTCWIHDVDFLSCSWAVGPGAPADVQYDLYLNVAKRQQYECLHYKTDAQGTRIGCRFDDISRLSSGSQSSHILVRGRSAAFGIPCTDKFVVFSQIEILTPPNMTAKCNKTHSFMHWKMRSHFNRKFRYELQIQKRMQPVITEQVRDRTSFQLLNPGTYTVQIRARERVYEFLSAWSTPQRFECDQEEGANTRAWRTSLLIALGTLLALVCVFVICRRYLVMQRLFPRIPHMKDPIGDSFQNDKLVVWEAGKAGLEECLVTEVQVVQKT

[2] = molecular target: T2, human IL-3Rα Y58A, full length (human, UniProt P26951 19-378)
T2 construct: expressed in 293F cells; Western blot of whole cell extracts; also called Y58, cell surface alanine
T2 sequence: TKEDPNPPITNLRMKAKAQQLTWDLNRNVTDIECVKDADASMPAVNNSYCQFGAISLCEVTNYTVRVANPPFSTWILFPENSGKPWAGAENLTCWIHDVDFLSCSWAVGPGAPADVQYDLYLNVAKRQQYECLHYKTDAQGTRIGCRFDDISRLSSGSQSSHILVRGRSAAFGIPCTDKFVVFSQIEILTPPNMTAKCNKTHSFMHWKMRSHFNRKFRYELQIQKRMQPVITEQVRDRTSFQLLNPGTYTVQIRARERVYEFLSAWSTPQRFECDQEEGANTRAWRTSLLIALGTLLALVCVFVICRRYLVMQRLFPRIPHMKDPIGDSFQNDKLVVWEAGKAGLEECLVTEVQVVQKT

[3] = molecular target: T3, human IL-3Rα P61A, full length (human, UniProt P26951 19-378)
T3 construct: expressed in 293F cells; Western blot of whole cell extracts; also called P61, cell surface alanine
T3 sequence: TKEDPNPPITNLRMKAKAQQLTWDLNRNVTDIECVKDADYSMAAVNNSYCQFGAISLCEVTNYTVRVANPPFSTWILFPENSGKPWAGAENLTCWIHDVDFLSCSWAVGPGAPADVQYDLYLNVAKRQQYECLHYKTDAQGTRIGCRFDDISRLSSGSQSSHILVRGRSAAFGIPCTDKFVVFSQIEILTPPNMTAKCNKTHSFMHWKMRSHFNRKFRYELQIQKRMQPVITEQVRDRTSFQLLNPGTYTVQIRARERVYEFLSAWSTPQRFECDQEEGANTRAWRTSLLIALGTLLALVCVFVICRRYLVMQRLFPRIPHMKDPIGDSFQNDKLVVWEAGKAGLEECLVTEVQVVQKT

[4] = molecular target: T4, human IL-3Rα R84A, full length (human, UniProt P26951 19-378)
T4 construct: expressed in 293F cells; Western blot of whole cell extracts; also called R84, cell surface alanine
T4 sequence: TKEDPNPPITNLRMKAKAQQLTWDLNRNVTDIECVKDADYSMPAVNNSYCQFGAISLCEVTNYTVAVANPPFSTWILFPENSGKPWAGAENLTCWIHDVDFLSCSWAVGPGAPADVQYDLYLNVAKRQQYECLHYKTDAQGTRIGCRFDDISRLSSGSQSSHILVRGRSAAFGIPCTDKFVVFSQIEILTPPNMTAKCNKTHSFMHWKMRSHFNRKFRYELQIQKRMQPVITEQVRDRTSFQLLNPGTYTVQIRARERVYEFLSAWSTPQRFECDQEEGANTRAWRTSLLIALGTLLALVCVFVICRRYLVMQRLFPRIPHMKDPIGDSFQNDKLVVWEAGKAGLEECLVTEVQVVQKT

[5] = molecular target: T5, human IL-3Rα W93A, full length (human, UniProt P26951 19-378)
T5 construct: expressed in 293F cells; Western blot of whole cell extracts; also called W93, cell surface alanine
T5 sequence: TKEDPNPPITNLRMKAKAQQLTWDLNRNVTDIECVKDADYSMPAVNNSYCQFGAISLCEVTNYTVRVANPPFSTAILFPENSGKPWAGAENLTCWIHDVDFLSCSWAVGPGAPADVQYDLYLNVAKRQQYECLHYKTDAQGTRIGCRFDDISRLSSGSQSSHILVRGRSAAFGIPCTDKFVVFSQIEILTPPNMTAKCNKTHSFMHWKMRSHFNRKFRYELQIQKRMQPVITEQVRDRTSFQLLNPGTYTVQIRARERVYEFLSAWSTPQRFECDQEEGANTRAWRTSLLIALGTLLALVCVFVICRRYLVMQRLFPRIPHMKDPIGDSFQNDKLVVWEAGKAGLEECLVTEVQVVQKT

Measured: binding result

B1: monoclonal antibody 7G3 (antibody, V domains shown)
VH: EVQLQQSGPELVKPGASVKMSCKASGYTFTDYYMKWVKQSHGKSLEWIGDIIPSNGATFYNQKFKGKATLTVDRSSSTAYMHLNSLTSEDSAVYYCTRSHLLRASWFAYWGQGTLVTVSA
VL: DFVMTQSPSSLTVTAGEKVTMSCKSSQSLLNSGNQKNYLTWYLQKPGQPPKLLIYWASTRESGVPDRFTGSGSGTDFTLTISSVQAEDLAVYYCQNDYSYPYTFGGGTKLEIKR
notes: mouse monoclonal antibody (hybridoma ATCC HB-12009)
no binding: all assays above

Reference: patent US20160031996A1 (CSL, published 2016)
